Assay results published in patent publication US20220025010A1 (ANTAG THERAPEUTICS, published 2022).
Like-named read-outs stand apart in the source and are kept apart here. *1 amine or outer side, *2 acyl side, *3 side chain or, on linkers, in order; H or OH if unused. Where no end group is shown, it is not given here. Side-chain parts run from the residue outwards. [ ]: non-standard residue; d: D form. The star is where a group is joined. C18 diacid = O=C(O)CCCCCCCCCCCCCCCCC(=O)*; C16 diacid = O=C(O)CCCCCCCCCCCCCCC(=O)*; γGlu = O=C(O)[C@H](CCC(=O)[*:2])N[*:1]; pGlu = O=C1CC[C@@H](C(=O)O)N1; AEEA = NCCOCCOCC(=O)O

T1: human GIP receptor (human, UniProt P48546 22-466)
T1 sequence (looked up): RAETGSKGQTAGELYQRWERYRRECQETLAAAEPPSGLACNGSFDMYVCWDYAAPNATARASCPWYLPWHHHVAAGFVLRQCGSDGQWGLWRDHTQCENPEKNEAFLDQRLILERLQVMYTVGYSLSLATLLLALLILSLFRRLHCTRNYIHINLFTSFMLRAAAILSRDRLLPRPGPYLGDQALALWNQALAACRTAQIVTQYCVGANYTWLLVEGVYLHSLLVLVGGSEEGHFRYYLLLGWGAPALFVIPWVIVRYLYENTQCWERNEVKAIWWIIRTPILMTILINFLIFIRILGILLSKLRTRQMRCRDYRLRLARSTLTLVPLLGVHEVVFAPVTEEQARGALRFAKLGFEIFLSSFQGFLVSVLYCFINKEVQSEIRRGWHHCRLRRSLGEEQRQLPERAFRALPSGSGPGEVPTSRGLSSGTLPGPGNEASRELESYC


Tests used:
Test in all cases: cell-based or functional assay
human GIP receptor [1] = biological target: T1, human GIP receptor
glucagon receptor = glucagon receptor (UniProt P47871 26-477, limits assumed)
GLP1 receptor = GLP1 receptor (UniProt P43220 24-463, limits assumed)
human GIP receptor [2] = biological target: T1, human GIP receptor; remark: listed apart in the source
human GIP receptor [3] = biological target: T1, human GIP receptor; remark: listed apart in the source
human GIP receptor [4] = biological target: T1, human GIP receptor; remark: listed apart in the source

Chain of glucagon receptor (P47871 26-477 limits assumed): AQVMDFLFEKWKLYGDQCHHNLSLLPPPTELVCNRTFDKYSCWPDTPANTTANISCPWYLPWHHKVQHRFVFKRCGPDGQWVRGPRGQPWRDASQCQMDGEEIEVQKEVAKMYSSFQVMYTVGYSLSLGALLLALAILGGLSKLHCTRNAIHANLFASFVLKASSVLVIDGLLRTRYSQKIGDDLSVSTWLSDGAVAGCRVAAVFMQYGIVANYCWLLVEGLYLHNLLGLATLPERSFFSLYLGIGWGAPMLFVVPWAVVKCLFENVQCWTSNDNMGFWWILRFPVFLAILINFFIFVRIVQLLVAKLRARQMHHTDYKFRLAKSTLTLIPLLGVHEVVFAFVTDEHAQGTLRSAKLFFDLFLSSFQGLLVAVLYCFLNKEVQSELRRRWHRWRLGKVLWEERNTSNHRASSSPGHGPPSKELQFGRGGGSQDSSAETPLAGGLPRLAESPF

| Binder | CisBio cAMP agonism % Efficacy (human GIP receptor [1]) | CisBio cAMP antagonism % inhib (human GIP receptor [1]) | CisBio cAMP antagonism IC50 (human GIP receptor [1]) | CisBio cAMP antagonism pIC50 (human GIP receptor [1]) | DiscoveRx cAMP antagonism IC50 (human GIP receptor [1]) | DiscoveRx cAMP antagonism log IC50 (human GIP receptor [1]) | cAMP antagonism % inhib (GLP1 receptor) | cAMP antagonism IC50 (GLP1 receptor) | cAMP antagonism index (GLP1 receptor) | cAMP antagonism log IC50 (GLP1 receptor) | CisBio cAMP antagonism % inhib (human GIP receptor [2]) | CisBio cAMP antagonism IC50 (human GIP receptor [2]) | cAMP antagonism IC50 (human GIP receptor [2]) | cAMP antagonism IC50 (finer than Table 1B) (human GIP receptor [3]) | DiscoveRx cAMP antagonism % inhib (human GIP receptor [1]) | cAMP antagonism % inhib (human GIP receptor [2]) | other results |
| --- | --- | --- | --- | --- | --- | --- | --- | --- | --- | --- | --- | --- | --- | --- | --- | --- | --- |
| GGTFISDYSIAMDRIK(C16 diacid)QQDFVNWLLAQR-OH (N-terminus assumed; SMILES CC[C@H](C)[C@H](NC(=O)[C@H](CO)NC(=O)[C@H](Cc1ccc(O)cc1)NC(=O)[C@H](CC(=O)O)NC(=O)[C@H](CO)NC(=O)[C@@H](NC(=O)[C@H](Cc1ccccc1)NC(=O)[C@@H](NC(=O)CNC(=O)CN)[C@@H](C)O)[C@@H](C)CC)C(=O)N[C@@H](C)C(=O)N[C@@H](CCSC)C(=O)N[C@@H](CC(=O)O)C(=O)N[C@@H](CCCNC(=N)N)C(=O)N[C@H](C(=O)N[C@@H](CCCCNC(=O)CCCCCCCCCCCCCCC(=O)O)C(=O)N[C@@H](CCC(N)=O)C(=O)N[C@@H](CCC(N)=O)C(=O)N[C@@H](CC(=O)O)C(=O)N[C@@H](Cc1ccccc1)C(=O)N[C@H](C(=O)N[C@@H](CC(N)=O)C(=O)N[C@@H](Cc1c[nH]c2ccccc12)C(=O)N[C@@H](CC(C)C)C(=O)N[C@@H](CC(C)C)C(=O)N[C@@H](C)C(=O)N[C@@H](CCC(N)=O)C(=O)N[C@@H](CCCNC(=N)N)C(=O)O)C(C)C)[C@@H](C)CC) [AT257] | 5% | 80% | 136 nM | 6.9 | 21 nM | -7.7 log M | 55% | 5390 nM | 256 | -5.3 log M | 80% | 136 nM | 21 nM |  |  |  | DiscoveRx cAMP agonism Emax (human GIP receptor [1]): 4; cAMP antagonism % inhib (glucagon receptor): 100%; cAMP antagonism IC50 (glucagon receptor): 15 nM; cAMP antagonism index (glucagon receptor): 1 |
| [pGlu]GTFISDYSIAMDRIK([AEEA-AEEA-AEEA-γGlu-C16 diacid])QQDFVNWLLAQR-NH2 [AT380] | 8% | 82% | 85.8 nM | 7.1 | 7 nM | -8.1 log M |  |  |  |  |  |  |  | 7.3 nM | 100% |  |  |
| [pGlu]GTFISDYSIAMDRIK([AEEA-AEEA-AEEA-γGlu-C18 diacid])QQDFVNWLLAQR-NH2 [AT382] | 0% | 83% | 25.1 nM | 7.6 | 2 nM | -8.7 log M |  |  |  |  | 83% | 25.1 nM | 2 nM | 1.8 nM | 100% | 100% |  |
| [pGlu]GTFISDYSIAMDRIK(C16 diacid)QQDFVNWLLAQR-NH2 [AT390] | 4% | 81% | 15.9 nM | 7.8 | 1 nM | -9.1 log M |  |  |  |  |  |  |  | 0.8 nM | 100% |  |  |
| SGTFISDYSIAMDRIK(C16 diacid)QQDFVNWLLAQR-NH2 (N-terminus assumed; SMILES CC[C@H](C)[C@H](NC(=O)[C@H](CO)NC(=O)[C@H](Cc1ccc(O)cc1)NC(=O)[C@H](CC(=O)O)NC(=O)[C@H](CO)NC(=O)[C@@H](NC(=O)[C@H](Cc1ccccc1)NC(=O)[C@@H](NC(=O)CNC(=O)[C@@H](N)CO)[C@@H](C)O)[C@@H](C)CC)C(=O)N[C@@H](C)C(=O)N[C@@H](CCSC)C(=O)N[C@@H](CC(=O)O)C(=O)N[C@@H](CCCNC(=N)N)C(=O)N[C@H](C(=O)N[C@@H](CCCCNC(=O)CCCCCCCCCCCCCCC(=O)O)C(=O)N[C@@H](CCC(N)=O)C(=O)N[C@@H](CCC(N)=O)C(=O)N[C@@H](CC(=O)O)C(=O)N[C@@H](Cc1ccccc1)C(=O)N[C@H](C(=O)N[C@@H](CC(N)=O)C(=O)N[C@@H](Cc1c[nH]c2ccccc12)C(=O)N[C@@H](CC(C)C)C(=O)N[C@@H](CC(C)C)C(=O)N[C@@H](C)C(=O)N[C@@H](CCC(N)=O)C(=O)N[C@@H](CCCNC(=N)N)C(N)=O)C(C)C)[C@@H](C)CC) [AT392] |  |  |  | 7.2 |  | -9.2 log M |  |  |  |  | 96% | 68.1 nM | 1 nM | 0.6 nM |  | 93% |  |
| FISDYSIAMDKIK(C16 diacid)QQDFVNWLLAQK-NH2 (N-terminus assumed; SMILES CC[C@H](C)[C@H](NC(=O)[C@H](CO)NC(=O)[C@H](Cc1ccc(O)cc1)NC(=O)[C@H](CC(=O)O)NC(=O)[C@H](CO)NC(=O)[C@@H](NC(=O)[C@@H](N)Cc1ccccc1)[C@@H](C)CC)C(=O)N[C@@H](C)C(=O)N[C@@H](CCSC)C(=O)N[C@@H](CC(=O)O)C(=O)N[C@@H](CCCCN)C(=O)N[C@H](C(=O)N[C@@H](CCCCNC(=O)CCCCCCCCCCCCCCC(=O)O)C(=O)N[C@@H](CCC(N)=O)C(=O)N[C@@H](CCC(N)=O)C(=O)N[C@@H](CC(=O)O)C(=O)N[C@@H](Cc1ccccc1)C(=O)N[C@H](C(=O)N[C@@H](CC(N)=O)C(=O)N[C@@H](Cc1c[nH]c2ccccc12)C(=O)N[C@@H](CC(C)C)C(=O)N[C@@H](CC(C)C)C(=O)N[C@@H](C)C(=O)N[C@@H](CCC(N)=O)C(=O)N[C@@H](CCCCN)C(N)=O)C(C)C)[C@@H](C)CC) [AT353] | 0% | 90% | 25.1 nM | 7.6 |  |  | 43% | 169 nM | 44 | -6.8 log M | 90% | 25.1 nM | 9 nM |  |  | 100% | cAMP antagonism % inhib (human GIP receptor [4]): 100%; cAMP antagonism IC50 (human GIP receptor [4]): 9 nM; cAMP antagonism log IC50 (human GIP receptor [4]): -8.1 log M |
